Data on 33 molecules can be found in patent US20230203146A1 (Boehringer Ingelheim, published 2023).

One may read the IC50 as the point on the concentration scale where inhibition reaches its midpoint. Usually koff stands for the rate constant with which the complex falls apart.

First the molecules themselves.
T1: N-terminally FLAG-tagged mouse Ang2 (HEK293T conditioned medium) (mouse, UniProt O35608 19-496)
T1 construct: may be a nucleotide entry; also called mAng2; FLAG-mAng2
T1 sequence: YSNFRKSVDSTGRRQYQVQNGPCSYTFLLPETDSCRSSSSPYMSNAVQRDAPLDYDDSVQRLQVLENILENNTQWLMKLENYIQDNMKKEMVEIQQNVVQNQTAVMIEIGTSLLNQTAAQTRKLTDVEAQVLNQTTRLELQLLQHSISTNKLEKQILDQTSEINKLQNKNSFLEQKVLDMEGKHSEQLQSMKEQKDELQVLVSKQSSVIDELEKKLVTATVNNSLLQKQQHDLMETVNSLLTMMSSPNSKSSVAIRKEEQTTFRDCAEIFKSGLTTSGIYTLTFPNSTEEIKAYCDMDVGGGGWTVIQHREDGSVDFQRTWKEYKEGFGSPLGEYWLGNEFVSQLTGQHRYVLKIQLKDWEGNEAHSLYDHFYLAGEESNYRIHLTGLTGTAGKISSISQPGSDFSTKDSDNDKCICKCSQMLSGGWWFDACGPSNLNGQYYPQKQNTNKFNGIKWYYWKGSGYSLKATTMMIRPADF

T2: recombinant human Ang2-FLD (human, UniProt O15123 275-496, limits assumed)
T2 construct: domain: FLD; not used
T2 sequence (looked up): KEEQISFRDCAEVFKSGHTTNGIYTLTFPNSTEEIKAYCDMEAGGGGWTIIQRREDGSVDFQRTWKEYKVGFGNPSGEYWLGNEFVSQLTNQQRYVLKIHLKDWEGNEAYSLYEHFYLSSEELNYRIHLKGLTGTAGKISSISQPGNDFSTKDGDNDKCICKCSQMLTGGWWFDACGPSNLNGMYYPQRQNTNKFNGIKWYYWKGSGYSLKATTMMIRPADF

B1: VHH 10C06 (VHH)
VHH: EVQLVESGGGLVQAGGSLRLSCVASGFTFDDYAIGWFRQAPGKEREGVSCISSSDGSTYYADSVKGRFTISGDNAKNTVYLQMNSLKPEDTAVYYCAAGITPCSDYTQTYEYDVWGQGTQVTVSS
notes: also called 010C06; not shown: C-terminal c-myc tag and His6 tag
B2: VHH 3A07 (VHH)
VHH: EVQLVESGGGLVQPGGSLRLSCAASGFTLDYDAIGWFRQAPGKEREGVSCITSSDGITYYADSVKGRFTISRDNAKNTVYLQMNSLKPEDTAVYYCATGNRRIYYSDYALACFPYEYDYWGQGTQVTVSS
notes: also called 003A07; not shown: C-terminal c-myc tag and His6 tag
B3: VHH 14H02 (VHH)
VHH: EVQLVESGGGLVQAGGSLRLSCAASGFTFDEYAIGWFRQAPGKEREGVSYISSSDGSTYYADSVKGRVTSSSDNAKNTVYLQMNSLKPEDTAVYYCAARPTLRVRLDNDRHHLLYEYEYDYWGQGTQVTVSS
notes: also called 014H02; not shown: C-terminal c-myc tag and His6 tag
B4: VHH 2F04 (VHH)
VHH: EVQLVESGGGLVQAGGSLRLSCAASGFAFDDHLIGWFRQAPGKEREAVSCISRSAGSTYYADSVKGRFTISSDNAKNTVYLQMNSLKADDTAVYYCAAGPAWGRPASPLPYEYDYWGQGTQVTVSS
notes: also called 002F04; not shown: C-terminal c-myc tag and His6 tag
B5: VHH 16G09 (VHH)
VHH: EVQLVESGGGLVQAGGSLRLVCSASGIDFSINAMAWYRQAPGKQREWVAFMINDSSTDYTDSVKGRFTISRDSTKNILYLQMNNLNVEDTAVYYCNTAYEQHTYWGQGTQVTVSS
notes: also called 016G09; not shown: C-terminal c-myc tag and His6 tag
B6: VHH 6H05 (VHH)
VHH: EVQLVESGGGLVQAGGSLRLSCAASGFTFDDYAIGWFRQAPGKEREGVSCISSSDGSTAYADSVKGRFTISSDNAKNTVYLQMNSLKPEDTAVYYCTAVPATRRTPQMVAANVCWLAEYEYDYWGQGTQVTVSS
notes: also called 006H05; not shown: C-terminal c-myc tag and His6 tag
B7: VHH 3F02 (VHH)
VHH: EVQLVESGGGLVQVGDSLRLACAASGRTFSTYLMVGWFRQAPGKEREFAAGIWSSGDTAYADSVKGRFTISRDNAKNTVYLQMNSLKTEDTAVYYCAGSYDGNYYIPGFYKDWGQGTQVTVSS
notes: also called 003F02; not shown: C-terminal c-myc tag and His6 tag
B8: VHH 12B03 (VHH)
VHH: EVQLVESGGGLVQSGGSLRLSCAASGFALDYYTIGWFRQAPGKEREGVSCISGGDTSTYYADSVKGRFTISRDNAKNTVYLQMNSLKPEDTAVYYCATDSAGVPAGPAAVYGSTCSRLEYDYWGQGAQVTVSS
notes: also called 012B03; not shown: C-terminal c-myc tag and His6 tag
B9: VHH 55D06 (VHH)
VHH: EVQLVESGGGLVQAGGSLRLSCAASGLTLDDYAIGWFRQAPGKEREGVSSIRDNDGSTYYADSVKGRFTISSDNDKNTVYLQMNSLKPEDTAVYYCAAVPAGRLRFGEQWYPIYEYDAWGQGTLVTVSS
notes: periplasmic extract; not shown: C-terminal c-myc tag and His6 tag
B10: VHH 55F02 (VHH)
VHH: B9 VHH with A14S
notes: as for B9
B11: VHH 65F03 (VHH)
VHH: B9 VHH with L4M, S85G
notes: as for B9
B12: VHH 64F03 (VHH)
VHH: B9 VHH with A24V, L27I, I34V, S50T, E89K
notes: as for B9
B13: VHH 64G11 (VHH)
VHH: B9 VHH with L27I, E46V
notes: as for B9
B14: VHH 64B01 (VHH)
VHH: B9 VHH with S17T, A24V, L27F, T123I
notes: as for B9
B15: VHH 64D11 (VHH)
VHH: B9 VHH with L11Q, V12A, A24V, L27F, A61T
notes: as for B9
B16: VHH 64F07 (VHH)
VHH: B9 VHH with E1Q, A24V, L27F, K76Q, P88S
notes: as for B9
B17: VHH 56A07 (VHH)
VHH: B9 VHH with L27F, F68S, D75A, K76R, Y80F
notes: as for B9
B18: VHH 60A06 (VHH)
VHH: B9 VHH with L27F, E44D, F106Y, L124V
notes: as for B9
B19: VHH 64C03 (VHH)
VHH: B9 VHH with L27F, F106Y
notes: as for B9
B20: VHH 64G01 (VHH)
VHH: B9 VHH with L27F, T69I, S85N, F106Y
notes: as for B9
B21: VHH 60C09 (VHH)
VHH: B9 VHH with A24V, L27I, G66W, L86M, T123I
notes: as for B9
B22: VHH 53A06 (VHH)
VHH: B9 VHH with G10S
notes: as for B9
B23: VHH 58D10 (VHH)
VHH: B9 VHH with V2E, Q3L, L11S, R19K
notes: as for B9
B24: VHH 64G02 (VHH)
VHH: B9 VHH with A24I, L27F, D30V, T69I
notes: as for B9
B25: VHH 64E12 (VHH)
VHH: B9 VHH with A24V, L27F, F68S
notes: as for B9
B26: VHH 64G03 (VHH)
VHH: B9 VHH with L27F, F68S, N84D, F106Y
notes: as for B9
B27: VHH 64A03 (VHH)
VHH: B9 VHH with V5L, L27F, F106I
notes: as for B9
B28: VHH 64B02 (VHH)
VHH: B9 VHH with S17F, S21T, A24V, L27F, D75V
notes: as for B9
B29: VHH 65F01 (VHH)
VHH: B9 VHH with T58R
notes: as for B9
B30: VHH 55G03 (VHH)
VHH: B9 VHH with G10S
notes: as for B9
B31: VHH 55A06 (VHH)
VHH: B9 VHH with V5M, L27I, Y80N
notes: as for B9
B32: VHH 64C07 (VHH)
VHH: B9 VHH with Q3H, K43V
notes: as for B9
B33: VHH 64G12 (VHH)
VHH: B9 VHH with A24V, L27F, D53E, K65Q, Q82R
notes: as for B9

Positions count from the first letter of the chain named.

One test concerns the target T1, N-terminally FLAG-tagged mouse Ang2 …. As to the kind of experiment: competition ELISA, FLAG-mAng2 on coated mTie2-Fc. As for the experimental part:
In brief, 2 μg/mL of recombinant mouse Tie2-Fc or cyno Tie2-Fc is coated overnight at 4° C. in a 96-well MaxiSorp plate (Nunc, Wiesbaden, Germany). Coated wells are blocked with a 1% casein solution.
In general terms: ELISA stands for enzyme-linked immunosorbent assay.
The molecule B1 came in with an IC50 of 0.0452 µM. B2 registered a half-inhibitory concentration (IC50) of 0.0993 µM. Compared with the last molecule, the IC50 is about 2.2-fold higher. The molecule B3 had a half-inhibitory concentration (IC50) of 0.143 µM. The IC50 values of the last two molecules are within 1.5-fold of each other. For the molecule B4, the IC50 was determined as 0.0574 µM.

Regarding B5, the IC50 turned out to be 0.0194 µM. As for B6, the IC50 turned out to be 0.0077 µM. As to B7, the IC50 was found to be 0.0327 µM. On the same count and under the same terms, the value for B8 was 0.0067 µM.

For the next test, the target named is T2, recombinant human Ang2-FLD. In words: ProteOn off-rate assay, periplasmic extract 1:10 over coated human Ang2-FLD. As for the experimental part:
In a first cycle, amino acid substitutions are introduced randomly in both framework (FW) and complementary determining regions (CDR) using the error-prone PCR method. […] After a polish step, PCR products are inserted via unique restriction sites into a vector designed to facilitate phage display of the VHH library. […] Periplasmic extract of affinity matured clones is diluted 1:10 and injected across the “analyte channels” A1-A6.
B9: the “fold improvement (off-rate against VHH 00027)” value (from here on “fold improvement”) was determined as 9.4 fold and the dissociation rate constant (koff) is 0.00012 s⁻¹. Consider B10, for which the “fold improvement” value was 8.7 fold and the koff was found to be 0.00014 s⁻¹.

For B11, the “fold improvement” value was 8.9 fold and the koff is 0.00014 s⁻¹.

In the case of B12, the “fold improvement” value was found to be 10.8 fold and the koff stood at 0.00011 s⁻¹. Turning to B13, the “fold improvement” value was determined as 9.6 fold and the koff worked out at 0.00012 s⁻¹. For B14, in that order: 8.2 fold and 0.00014 s⁻¹. The corresponding values for B15 are 10.3 fold and 0.00011 s⁻¹. As for B16, the “fold improvement” value was 9.4 fold and the koff was determined as 0.00012 s⁻¹.

Turning to B17, the “fold improvement” value is 8.1 fold and the koff came to 0.00015 s⁻¹.

In the case of B18, the “fold improvement” value is 8.3 fold and the koff came out at 0.00016 s⁻¹.

Turning to B19, the “fold improvement” value amounted to 9.2 fold and the koff turned out to be 0.00013 s⁻¹. Turning to B20, the “fold improvement” value came out at 8.2 fold and the koff was found to be 0.00014 s⁻¹. Regarding B21, the “fold improvement” value was found to be 8.5 fold and the koff is 0.00016 s⁻¹. Turning to B22, the “fold improvement” value came to 8 fold and the koff came to 0.00016 s⁻¹. On to B23, for which the “fold improvement” value was 8.1 fold and the koff was 0.00013 s⁻¹. Turning to B24, the “fold improvement” value stood at 9.4 fold and the off-rate constant (koff) turned out to be 0.00012 s⁻¹.

Take B25: the “fold improvement” value stood at 8.7 fold and the koff is 0.00013 s⁻¹.

In the case of B26, the “fold improvement” value was found to be 15.7 fold and the koff stood at 7.4e-05 s⁻¹. Turning to B27, the “fold improvement” value was 8.3 fold and the off-rate constant (koff) was 0.00014 s⁻¹. B28: the “fold improvement” value is 8.5 fold and the koff is 0.00014 s⁻¹.

For the molecule B29, the “fold improvement” value worked out at 8.1 fold and the koff came to 0.00016 s⁻¹. For B30, the “fold improvement” value was determined as 8 fold and the koff was determined as 0.00015 s⁻¹.

For the molecule B31, the “fold improvement” value amounted to 9.2 fold and the off-rate (koff) was 0.00013 s⁻¹. Regarding B32, the “fold improvement” value turned out to be 8.3 fold and the koff was 0.00014 s⁻¹.

B33: the “fold improvement” value was found to be 8.9 fold and the koff turned out to be 0.00013 s⁻¹.
